In US7078233:

Target: T1, 6-methylsalicylic acid synthase (6-MSAS) from Penicillium patulum, P22367
T1 chain: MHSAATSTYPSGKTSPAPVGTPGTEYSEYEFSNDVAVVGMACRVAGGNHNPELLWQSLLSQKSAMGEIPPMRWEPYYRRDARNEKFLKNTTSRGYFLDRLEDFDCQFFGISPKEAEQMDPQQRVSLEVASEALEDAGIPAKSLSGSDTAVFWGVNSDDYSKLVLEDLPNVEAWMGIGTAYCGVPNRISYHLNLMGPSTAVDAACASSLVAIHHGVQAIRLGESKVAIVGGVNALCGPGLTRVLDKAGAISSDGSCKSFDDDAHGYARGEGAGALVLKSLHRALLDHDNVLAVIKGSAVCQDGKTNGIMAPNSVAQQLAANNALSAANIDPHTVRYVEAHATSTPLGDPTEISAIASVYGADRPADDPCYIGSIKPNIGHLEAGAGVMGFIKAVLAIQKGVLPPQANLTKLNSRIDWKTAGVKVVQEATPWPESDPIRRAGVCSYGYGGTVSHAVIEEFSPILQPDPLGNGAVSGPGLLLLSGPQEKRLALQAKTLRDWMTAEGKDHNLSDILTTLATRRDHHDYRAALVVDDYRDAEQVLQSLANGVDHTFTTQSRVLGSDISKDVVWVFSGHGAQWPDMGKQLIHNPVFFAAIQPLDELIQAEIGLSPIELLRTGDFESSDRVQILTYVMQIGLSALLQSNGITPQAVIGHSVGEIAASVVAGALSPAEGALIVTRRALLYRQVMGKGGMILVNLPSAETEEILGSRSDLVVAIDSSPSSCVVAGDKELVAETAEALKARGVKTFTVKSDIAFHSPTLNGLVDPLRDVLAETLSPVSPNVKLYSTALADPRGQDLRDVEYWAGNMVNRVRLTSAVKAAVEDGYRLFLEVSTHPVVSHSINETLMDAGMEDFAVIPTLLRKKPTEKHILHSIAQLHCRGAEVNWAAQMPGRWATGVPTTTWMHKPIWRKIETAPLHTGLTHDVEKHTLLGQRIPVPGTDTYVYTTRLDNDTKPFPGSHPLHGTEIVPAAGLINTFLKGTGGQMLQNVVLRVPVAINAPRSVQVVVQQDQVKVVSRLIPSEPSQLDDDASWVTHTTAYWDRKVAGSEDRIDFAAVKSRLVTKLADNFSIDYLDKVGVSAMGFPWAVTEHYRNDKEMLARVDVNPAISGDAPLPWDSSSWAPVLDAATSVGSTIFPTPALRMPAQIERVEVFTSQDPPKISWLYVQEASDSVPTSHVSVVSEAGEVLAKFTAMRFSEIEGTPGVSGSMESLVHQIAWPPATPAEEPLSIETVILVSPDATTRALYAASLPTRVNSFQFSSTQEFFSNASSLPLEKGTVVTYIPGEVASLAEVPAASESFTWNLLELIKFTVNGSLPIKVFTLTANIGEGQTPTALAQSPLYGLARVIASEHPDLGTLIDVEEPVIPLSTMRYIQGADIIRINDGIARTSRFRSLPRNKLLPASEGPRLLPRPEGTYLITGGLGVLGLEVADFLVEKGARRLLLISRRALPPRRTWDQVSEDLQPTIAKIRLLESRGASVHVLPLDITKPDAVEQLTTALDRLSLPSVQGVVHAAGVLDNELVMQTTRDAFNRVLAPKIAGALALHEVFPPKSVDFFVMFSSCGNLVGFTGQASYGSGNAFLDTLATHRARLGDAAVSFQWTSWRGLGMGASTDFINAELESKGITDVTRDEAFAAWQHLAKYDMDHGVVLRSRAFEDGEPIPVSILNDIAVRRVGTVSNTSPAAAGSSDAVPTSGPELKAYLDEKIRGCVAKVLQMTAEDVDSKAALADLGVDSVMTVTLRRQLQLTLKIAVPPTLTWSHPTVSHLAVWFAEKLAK

B1: Bacillus subtilis surfactin holo ACP synthase (sfp) (protein)
chain: MKIYGIYMDRPLSQEENERFMSFISPEKREKCRRFYHKEDAHRTLLGDVLVRSVISRQYQLDKSDIRFSTQEYGKPCIPDLPDAHFNISHSGRWVICAFDSQPIGIDIEKTKPISLEIAKRFFSKTEYSDLLAKDKDEQTDYFYHLWSMKESFIKQEGKGLSLPLDSFSVRLHQDGQVSIELPDSHSPCYIKTYEVDPGYKMAVCAAHPDFPEDITMVSYEELL
radioactivity from labeled beta-alanine in the 190 kD 6-MSAS band on SDS-PAGE, E. coli SJ16 cotransformed with plasmids 108 (sfp) and 109 (6-MSAS): a detectable amount of radioactivity was found in the 190 kD 6-MSAS band
